From US8034769

Columns and labels:
CD4 = CD4 (UniProt P01730); test: SPR, BIACORE 2000, CD4 immobilized on C1 chip
HIV-GP120 (HIV-1) = test: SPR, BIACORE 2000, HIV-GP120 immobilized on C1 chip

Sequence of oxidized antithrombin III (P01008 33-464): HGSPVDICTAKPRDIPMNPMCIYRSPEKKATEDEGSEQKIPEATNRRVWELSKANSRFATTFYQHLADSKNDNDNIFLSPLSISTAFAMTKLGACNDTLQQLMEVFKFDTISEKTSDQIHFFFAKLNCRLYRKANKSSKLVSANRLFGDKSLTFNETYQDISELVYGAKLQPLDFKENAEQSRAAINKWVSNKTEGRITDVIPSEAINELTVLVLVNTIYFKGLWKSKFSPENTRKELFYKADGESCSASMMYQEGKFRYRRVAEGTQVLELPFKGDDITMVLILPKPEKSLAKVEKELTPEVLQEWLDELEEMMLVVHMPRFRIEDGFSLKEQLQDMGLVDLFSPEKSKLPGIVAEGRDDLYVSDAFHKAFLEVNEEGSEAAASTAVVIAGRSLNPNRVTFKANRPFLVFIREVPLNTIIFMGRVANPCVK

Work on oxidized antithrombin III yielded a Kd (CD4) of 1.63 nM, a kon (CD4) of 713000 M⁻¹ s⁻¹ and a Kd (HIV-GP120 (HIV-1)) of 0.701 nM. It also gave a kon (HIV-GP120 (HIV-1)) of 638000 M⁻¹ s⁻¹.
